Assay results taken from the supplement of paper PMC10201428.
± gives the standard deviation of the averaged measurements.

B1: library; a variant is named by its letters at N, in order (parent)
chain: AATGTTGTTGATGCAACCATAAAGTGATATTTAATAATTATTTATAATCAGCAACTTAACCACAAAACAACCATATATTGATATNTCACAAAACAACCATAANTTGATATTTTTGTGAATCGAGTATTTCAGCAAAACTACTGCAGTAAGAA

Experiments:
[1] = variants of: B1; assay: relative integration efficiency (T-LR orientation) vs wild-type transposon end (log2 (normalized fold change)); transposon end mutated: left end; higher = more efficient transposition; conditions: with VchCAST RNA-guided transposition machinery (E. coli BL21(DE3) host, lacZ target)
Procedure, shortened: (§1)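 In E. coli BL21(DE3), a T7-driven effector plasmid was paired with a pUC57 mini-transposon donor containing 1549 left-end or 1849 right-end barcoded transposon variants. Cells grew on plates with 0.1 mM IPTG at 37°C for 18 h. Relative integration efficiency was derived from Illumina reads of genomic integration junctions against input plasmids, as a log-transformed output/input barcode fold change normalised to reference barcodes.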

[2] = variants of: B1; assay: relative integration efficiency (T-RL orientation) vs wild-type transposon end (log2 (normalized fold change)); transposon end mutated: left end; higher = more efficient transposition; conditions: with VchCAST RNA-guided transposition machinery (E. coli BL21(DE3) host, lacZ target)
Procedure, shortened: as §1

| Variant | relative integration efficiency (log2) [1] | relative integration efficiency (log2) [2] |
| --- | --- | --- |
| CG C94A | -0.54 ± 0.48 | -0.268 ± 0.25 |
| TA G24A T30A A70C T76A T84A C87A T104A T110A T113A | -0.0484 ± 0.45 | -0.389 ± 0.28 |
| CG C71G C72G A73T T74A | -1.87 ± 0.61 | -2.18 ± 0.97 |
| CG T42A T43A A44T T45A | 0.262 ± 0.049 | 0.271 ± 0.16 |
| CG C60A C61A A62C C63A | 0.51 ± 0.29 | 0.406 ± 0.095 |
| CG G13A T30A T31C T32A A77C T86G | -0.338 ± 0.55 | -0.517 ± 0.16 |
| TG A16C G24T T30A A70C T76A T86G | 0.235 ± 0.55 | 0.0267 ± 0.24 |
| TA A16C G24T T32G A33C A70C T76A T86G T104A T110A T113A | -0.474 ± 0.24 | -0.791 ± 0.56 |
| TA A23G G24T A33T A70C T76A T86G A96C T112G T113C | -0.361 ± 0.74 | -0.338 ± 0.051 |
| CG G106A | -1.25 ± 1.6 | -0.788 ± 0.47 |
| CG T35C | -0.112 ± 0.24 | -0.0902 ± 0.18 |
| CG T116A | 0.317 ± 0.21 | 0.0633 ± 0.024 |
| CG T116G | 0.159 ± 0.61 | 0.0899 ± 0.05 |
| CG T9A G10C | -2.248 ± 0.0027 | -0.479 ± 0.16 |
| CG T32A T86A T112A | 0.255 ± 0.42 | -0.0963 ± 0.053 |
| CG A92T A93T | -0.29 ± 0.86 | -0.445 ± 0.23 |
| CG C17A C71A C97A | -0.871 ± 0.35 | -1.21 ± 0.59 |
| TA A23G G24T A33T T76A T78A T84A C87A T104A T110A T113A | 0.471 ± 0.38 | 0.117 ± 0.25 |
| CG A27C A81C A107C | -1.49 ± 1.6 | -1.32 ± 0.78 |
| CG A88T | 0.112 ± 0.73 | 0.0226 ± 0.1 |

| Variant | relative integration efficiency (log2) [1] | relative integration efficiency (log2) [2] |
| --- | --- | --- |
| CG C63G A64T | 0.148 ± 0.19 | 0.1041 ± 0.00033 |
| CG A54C C55A T56G T57G | -2.12 ± 1.2 | -1.68 ± 0.8 |
| TA A16C G24T T30A T76A A77G C87T T104G T113A | -0.204 ± 0.73 | -0.483 ± 0.46 |
| CG T104A T105A | -0.853 ± 0.48 | -0.642 ± 0.47 |
| TA A70C T76A T84A C87A A96C T112G T113C | -0.389 ± 0.085 | -0.122 ± 0.12 |
| CG A69T A70T | -0.797 ± 0.57 | -0.395 ± 0.4 |
| CG T12A G13A T30A A77C T86G | -0.394 ± 0.45 | -0.113 ± 0.12 |
| TA G24A T30A T76A A77G C87T A96C T110A T113A | 0.553 ± 0.26 | 0.0249 ± 0.25 |
| CG A34C T35G A36C A37C | 0.532 ± 0.072 | 0.175 ± 0.24 |
| CG A47C T48G C49A A50C | -1.93 ± 0.6 | -1.5 ± 0.48 |
| CG A81T | -0.4 ± 0.15 | -0.396 ± 0.57 |
| TA A23G G24T A33T T76A T78A T84A C87A A96C T110A T113A | 0.43 ± 0.2 | 0.182 ± 0.35 |
| CG A11T T12A G13C C14G | -2.81 ± 1.2 | -0.558 ± 0.43 |
| CG T9G G10T | -0.0361 ± 0.31 | 0.0751 ± 0.11 |
| TA A22T G24T T31C A33C A70C T76A T84A C87A A96C T110A T113A | -0.841 ± 0.82 | -0.504 ± 0.43 |
| CG C63A A64C A65C A66C | -0.236 ± 0.15 | -0.189 ± 0.012 |
| CG A19C T20G | -2.1 ± 1.2 | -2.69 ± 0.82 |
| CG A16C C17A | -0.804 ± 0.72 | -0.728 ± 0.41 |
| CG C52A A53C A54C C55A | 0.277 ± 0.23 | 0.0708 ± 0.21 |
| CG T84A | -0.0315 ± 0.47 | -0.0633 ± 0.033 |

| Variant | relative integration efficiency (log2) [1] | relative integration efficiency (log2) [2] |
| --- | --- | --- |
| CG C18G | 0.0813 ± 0.047 | 0.259 ± 0.083 |
| CG A109C | 0.0163 ± 0.22 | -0.193 ± 0.42 |
| CA A16C G24T T32G A33C A96C T112G T113C | -1.27 ± 0.78 | -0.695 ± 0.12 |
| CG T30A T31C T32A A77C T86G | 0.153 ± 0.44 | 0.116 ± 0.27 |
| CG A44C T45G A46C A47C | 0.0873 ± 0.37 | -0.21 ± 0.22 |
| TA A16C G24T T32G A33C T76A T78A T84A C87A A96C T112G T113C | -0.572 ± 0.31 | -0.447 ± 0.34 |
| CG G13T C14A A15C A16C | -1.69 ± 1.1 | -0.389 ± 0.12 |
| CG T31C | 0.331 ± 0.47 | -0.0756 ± 0.17 |
| TA A16C G24T T30A T76A A77G C87T A96C T112G T113C | 0.0498 ± 0.26 | -0.0655 ± 0.56 |
| TA A22T G24T T31C A33C T76A T78A T84A C87A T104G T113A | -0.19 ± 0.56 | -0.579 ± 0.53 |
| CG C49G | 0.811 ± 0.52 | 0.127 ± 0.33 |
| CG C49T | -0.164 ± 0.35 | 0.0612 ± 0.15 |
| CG T3G G4T | 0.453 ± 0.4 | 0.121 ± 0.041 |
| CG A27T A81T A107T | -2.46 ± 1.4 | -3.03 ± 1.3 |
| CG C98A A99C T100G A101C | -1.33 ± 0.029 | -2.27 ± 0.92 |
| TA G24A T30A A70C T76A T86G A102T T111C T113C | -0.456 ± 0.08 | -0.229 ± 0.18 |
| CG A33G | 0.00747 ± 0.0001 | 0.292 ± 0.074 |
| CG A33C | 0.29 ± 0.052 | 0.172 ± 0.082 |
